Experiments:
[1] = test system: carbapenem-resistant P. aeruginosa strains; experiment: Resensitization of carbapenem-resistant strains, combinations with imipenem or meropenem (Tables 18-22); format: cell-based, Pseudomonas aeruginosa; details: for FICI: isolate WC-452
Procedure: Such resensitization may be determined by combining the present lysins or lysin-AMP polypeptide constructs with an antibiotic in a checkerboard assay as described herein. Antibiotic-resistant bacteria, such as carbapenem-resistant P. aeruginosa, are added to the lysin or lysin-AMP polypeptide construct combination. […] See Clinical and Laboratory Standards Institute (CLSI), CLSI. […] M100 Performance Standards for Antimicrobial Susceptibility Testing; 29th Edition. Clinical and Laboratory Standards Institute, Wayne, Pa., which is herein incorporated by reference in its entirety.
Up to seven carbapenem-resistant isolates were assessed. […] See Clinical and Laboratory Standards Institute (CLSI), CLSI. […] M100 Performance Standards for Antimicrobial Susceptibility Testing; 29th Edition. Clinical and Laboratory Standards Institute, Wayne, Pa.

[2] = test system: Pseudomonas aeruginosa biofilm; experiment: MBEC in CAA supplemented with […] human serum (Table 14); format: cell-based
Procedure: (§1) Biofilms are then washed and treated with e.g., a 2-fold dilution series of the lysin in TSBg at e.g., 37° C. for 24 hours. After treatment, wells are washed, air-dried at e.g., 37° C. and stained with e.g., 0.05% crystal violet for 10 minutes.
(§2) Materials and methods: MICs were determined by broth microdilution in media supplemented with human serum and pulmonary surfactant ([…]®; Myoderm Clinical Supplies). Minimal biofilm eradicating concentrations (MBECs) were determined using standard methods. […] Fluorescence microscopy was performed after LIVE/DEAD staining (ThermoFisher) and TEM was performed.

[3] = test system: P. aeruginosa strain WC-453; experiment: Time-kill assay in HEPES or CAA with 25% human serum (Tables 7, 8); format: cell-based, Pseudomonas aeruginosa
Procedure: Exponential phase bacteria were then pelleted and resuspended in 1/5 culture volume of 25 mM HEPES, pH 7.4 before a final adjustment to an optical density corresponding to a McFarland value of 0.5. […] All treatments were incubated at 37° C. with aeration. At time points before the addition of lysin (or buffer control) and at 1 hour and 3 hours intervals thereafter, culture samples were removed for quantitative plating on CAA agar plates.

P. aeruginosa strains = experiment: Checkerboard synergy with meropenem in 25% CAA and […] human serum (Table 16); format: cell-based, Pseudomonas aeruginosa; details: for FICI value (Run #1), with meropenem / FICI value (Run #2), with meropenem: 25% CAA and […] human serum
P. aeruginosa isolates = experiment: MIC against a range of isolates in CAA + […] human serum (Table 11); format: cell-based, Pseudomonas aeruginosa
[4] = test system: outer membrane of P. aeruginosa (CFS 1292); experiment: N-phenyl-1-napthylamine (NPN) uptake assay, outer membrane destabilization (Table 15); format: cell-based, Pseudomonas aeruginosa; details: NPN fluorescence, buffer = 100, lysin 100 μg/well
Procedure: The ability of gram-negative lysins to destabilize the outer membrane of P. aeruginosa was evaluated through the use of an N-phenyl-1-napthylamine (NPN) uptake assay. […] NPN was added to a final concentration of […]. […] Changes in fluorescence were recorded (excitation 1=350 nm; emission 1=420 nm) over two hours.

[5] = test system: Pseudomonas aeruginosa strain CFS-1292 (meropenem resistant); details: strain CFS-1292; no added cations
Procedure: The activity of selected GN lysins and constructs in the presence of divalent cations was evaluated, and the impact of divalent cations at physiological concentrations was examined in the MIC assay format.

[6] = test system: biofilms formed by P. aeruginosa strain ATCC 17646; details: strain ATCC 17646 biofilm
Procedure: as §1

P. aeruginosa = experiment: MIC, modified CLSI broth microdilution in CAA medium without or with […] human serum (Table 4); format: cell-based, Pseudomonas aeruginosa; for CAA/HuS MIC: CAA supplemented with 2.5% human serum
Source text: 2015. […] Clinical and Laboratory Standards Institute, Wayne, Pa.

[7] = test system: Pseudomonas aeruginosa strain CFS-1292 (meropenem resistant); experiment: MIC in 25% CAA alone, with […] human serum or […] SURVANTA (Table 13); format: cell-based
Procedure: as §2

B1: GN428: lysin obtained from Escherichia virus CBA120 (SEQ ID NO: 60) (protein, listed as Escherichia virus)
chain: MAILKLGNRGSEVKALQQSLNKIGFSLTADGIFGKATENAVKSVQAGAGLVIDGIAGPKTFYAIRNAGDAHQEHLTEADLVDAARELGVELASMKAVNQVESRGTGFTKTGKIKTLFERHIMYKKVTAKFGQARANALYQLYPTLVNPNSGGYIGGDAELERLQGAIALDEDCAYESASYGLFQIMGFNCQICGYSNAKEMFTDFLTGERAHLLAFVKFIKADANMWKALKNKNWAEFARRYNGPAYAKNQYDTKLAAAYKSFC
B1 was tested, and the “resensitization to carbapenems in synergistic combinations” value ([1]; imipenem (IPM) and meropenem (MEM), carbapenem-resistant isolates) was “reductions of IPM and MEM MICS to below breakpoint values”, the FICI ([1]; lysin + imipenem) was 0.188 and the FICI ([1]; lysin + meropenem) was 0.188. For the same molecule, the “Antibiotic MIC / Lysin MIC, Alone” value ([1]; vs. WC-452 (Table 22)) was 2, the “MBEC in CAA supplemented with […] human serum” value [2] was 1 µg/mL and the “bactericidal activity (CFU decrease of 3-Log10, 3 hours after the addition of lysin)” value ([3]; 10 μg/mL, enumerated lysins in CAA/HuS, general statement for HEPES and CAA/HuS) was “bactericidal activity”. For the same molecule, the “CAA/HuS (Log10 CFU/mL), 1 hr” value ([3]; CAA + 25% human serum, lysin 10 μg/ml, 1 hr, WC-453) was 5.5 Log10 CFU/mL, the “CAA/HuS (Log10 CFU/mL), 3 hr” value ([3]; CAA + 25% human serum, lysin 10 μg/ml, 3 hr, WC-453) was less than 3.7 Log10 CFU/mL and the synergy with meropenem (P. aeruginosa strains; FICI less than or equal to 0.5 = potent synergy) was “exhibited synergy with meropenem”. The “FICI value (Run #1), with meropenem” value (P. aeruginosa strains; strain CFS 1292) was 0.1875, the “FICI value (Run #2), with meropenem” value (P. aeruginosa strains; strain CFS 1292) was 0.219 and the “FICI value (Run #1), with meropenem” value (P. aeruginosa strains; strain CFS 1557 (PA19)) was 0.1562. For the same molecule, the “FICI value (Run #2), with meropenem” value (P. aeruginosa strains; strain CFS 1557 (PA19)) was 0.198, the “FICI value (Run #1), with meropenem” value (P. aeruginosa strains; strain CFS 1558 (PA20)) was 0.09375 and the “FICI value (Run #2), with meropenem” value (P. aeruginosa strains; strain CFS 1558 (PA20)) was 0.135. For the same molecule, the “FICI value (Run #2), with meropenem” value (P. aeruginosa strains; strain CFS 1559 (PA21)) was 0.396, the “FICI value (Run #2), with meropenem” value (P. aeruginosa strains; strain CFS 1560 (PA22)) was 0.229 and the “FICI value (Run #2), with meropenem” value (P. aeruginosa strains; strain CFS 1561 (PA23)) was 0.323. For the same molecule, the “FICI value (Run #2), with meropenem” value (P. aeruginosa strains; strain CFS 1562 (PA24)) was 0.198, the “FICI value (Run #2), with meropenem” value (P. aeruginosa strains; strain CFS 1766 (ATCC 27853)) was 0.156 and the “activity against P. aeruginosa isolates in human serum or SURVANTA” value (P. aeruginosa isolates; Tables 11 and 12) was “active against a variety of P. aeruginosa isolates”. The “MIC, CAA + […] Human Serum” value (P. aeruginosa isolates; strain CFS 1109 (ATCC 17646)) was 1 µg/mL, the “MIC, CAA + […] Human Serum” value (P. aeruginosa isolates; strain CFS 1292) was 2 µg/mL and the “MIC, CAA + […] Human Serum” value (P. aeruginosa isolates; strain CFS1539 (PA1)) was 1 µg/mL. The “MIC, CAA + […] Human Serum” value (P. aeruginosa isolates; strain CFS 1540 (PA2)) was 1 µg/mL, the “MIC, CAA + […] Human Serum” value (P. aeruginosa isolates; strain CFS 1541 (PA3)) was 1 µg/mL and the “MIC, CAA + […] Human Serum” value (P. aeruginosa isolates; strain CFS 1557 (PA19)) was 4 µg/mL. The “MIC, CAA + […] Human Serum” value (P. aeruginosa isolates; strain CFS 1558 (PA20)) was 2 µg/mL, the “MIC, CAA + […] Human Serum” value (P. aeruginosa isolates; strain CFS 1559 (PA21)) was 2 µg/mL and the “MIC, CAA + […] Human Serum” value (P. aeruginosa isolates; strain CFS 1560 (PA22)) was 2 µg/mL. The “MIC, CAA + […] Human Serum” value (P. aeruginosa isolates; strain CFS 1561 (PA23)) was 2 µg/mL, the “MIC, CAA + […] Human Serum” value (P. aeruginosa isolates; strain CFS 1562 (PA24)) was 2 µg/mL and the “MIC, CAA + […] Human Serum” value (P. aeruginosa isolates; strain CFS 1596 (PA26)) was 1 µg/mL. For the same molecule, the “MIC, CAA + […] Human Serum” value (P. aeruginosa isolates; strain CFS 1597 (PA27)) was 0.5 µg/mL, the “MIC, CAA + […] Human Serum” value (P. aeruginosa isolates; strain CFS 1669 (PA41)) was 2 µg/mL and the “MIC, CAA + […] Human Serum” value (P. aeruginosa isolates; strain CFS 1674 (PA46)) was 2 µg/mL. For the same molecule, the “MIC, CAA + […] Human Serum” value (P. aeruginosa isolates; strain CFS 1675 (PA47)) was 1 µg/mL, the “MIC, CAA + […] Human Serum” value (P. aeruginosa isolates; strain CFS 1766 (ATCC 27853)) was 4 µg/mL and the “% RFU” value ([4]; 5 minutes) was 194 % RFU. The “% RFU” value ([4]; 10 minutes) was 242 % RFU, the “% RFU” value ([4]; 20 minutes) was 271 % RFU and the “% RFU” value ([4]; 40 minutes) was 250 % RFU. For the same molecule, the “% RFU” value ([4]; 60 minutes) was 183 % RFU, the “% RFU” value ([4]; 100 minutes) was 137 % RFU and the “MIC in 25% CAA” value [5] was 4 µg/mL. For the same molecule, the MBEC [6] was 1 µg/mL, the “CAA MIC” value (P. aeruginosa; CAA medium, no human serum) was 8000 µg/mL and the “CAA/HuS MIC” value (P. aeruginosa; CAA supplemented with […] human serum) was 125 µg/mL. For the same molecule, the “MIC in […] Survanta” value [7] was 4 µg/mL, the “MIC in human serum ([…]) in CAA” value [7] was 0.125 µg/mL and the “activity in human serum and pulmonary surfactant” value [7] was “active in human serum and pulmonary surfactant”. For the same molecule, the “25% CAA MIC” value ([7]; media alone) was 4.
